This note sets out measurements from patent US20220387586A1 (Hoffmann-La Roche, published 2022).

Test [1] concerns the target T1, recombinant Human LAG-3 Fc Chimera Protein (R&D Systems, 2319-L3) (human, UniProt P18627 29-450).
T1 construct: Bought protein; also called huLAG3; not shown: Fc part of the chimera
T1 sequence: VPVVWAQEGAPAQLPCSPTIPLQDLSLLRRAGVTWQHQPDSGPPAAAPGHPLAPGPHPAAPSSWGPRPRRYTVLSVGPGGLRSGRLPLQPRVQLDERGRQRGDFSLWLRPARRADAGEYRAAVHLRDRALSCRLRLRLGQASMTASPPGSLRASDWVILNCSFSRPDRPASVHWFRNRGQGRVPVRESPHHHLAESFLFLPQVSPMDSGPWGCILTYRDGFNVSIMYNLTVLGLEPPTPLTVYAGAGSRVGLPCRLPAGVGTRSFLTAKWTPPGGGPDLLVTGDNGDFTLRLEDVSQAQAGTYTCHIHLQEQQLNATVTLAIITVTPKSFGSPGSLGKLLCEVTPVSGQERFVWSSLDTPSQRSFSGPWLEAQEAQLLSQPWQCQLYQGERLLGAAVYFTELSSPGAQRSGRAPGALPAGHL
Kind of test: ELISA on coated Human LAG-3 Fc Chimera (rel. EC50). The procedure:
After washing (3×90 μl/well with PBST-buffer) each well was incubated with 90 μl blocking buffer (PBS+2% BSA+0.05% Tween 20) for 1 h at room temperature. […] After washing (3×90 μl/well with PBST-buffer) 25 μl/well goat anti-Human Ig κ chain antibody-HRP conjugate (Milipore, AP502P) was added in a 1:2000 dilution and incubated at RT for 1 h. After washing (3×90 μl/well with PBST-buffer) 25 μl/well TMB substrate (Roche, 11835033001) was added and incubated for 2-10 min. Measurement took place on a Tecan Safire 2 instrument at 370/492 nm.
In general terms: In an ELISA, binding on a coated surface is turned into a signal by an enzyme label.

Test [2] deals with T2, biotinylated PD1-ECD-AviHis (human, UniProt Q15116 25-170, biotinylated).
T2 construct: also called huPD1; hu PD1; not shown: Avi-His tag
T2 sequence (Q15116 25-170): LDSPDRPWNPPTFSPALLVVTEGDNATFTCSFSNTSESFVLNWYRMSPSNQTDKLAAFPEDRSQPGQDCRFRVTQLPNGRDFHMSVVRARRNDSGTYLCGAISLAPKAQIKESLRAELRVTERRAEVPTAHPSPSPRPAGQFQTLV
Kind of test: ELISA on coated biotinylated PD1-ECD-AviHis (rel. EC50). The procedure:
After washing (3×90 μl/well with PBST-buffer) 25 μl/well goat-anti-human H+L-POD (JIR, JIR109-036-098) was added in 1:5000 dilution and incubated at RT for 1 h on a shaker. After washing (3×90 μl/well with PBST-buffer) 25 μl/well of TMB substrate (Roche, 11835033001) was added and incubated until OD 2-3. Measurement took place at 370/492 nm.

The target of test [3] is T3, LAG3 on cells (recombinant CHO cells expressing Lag3) (human, UniProt P18627 29-525).
T3 construct: The cell ELISA paragraphs say only 'Lag3'; also called CHO-LAG3; Lag3 cells
T3 sequence: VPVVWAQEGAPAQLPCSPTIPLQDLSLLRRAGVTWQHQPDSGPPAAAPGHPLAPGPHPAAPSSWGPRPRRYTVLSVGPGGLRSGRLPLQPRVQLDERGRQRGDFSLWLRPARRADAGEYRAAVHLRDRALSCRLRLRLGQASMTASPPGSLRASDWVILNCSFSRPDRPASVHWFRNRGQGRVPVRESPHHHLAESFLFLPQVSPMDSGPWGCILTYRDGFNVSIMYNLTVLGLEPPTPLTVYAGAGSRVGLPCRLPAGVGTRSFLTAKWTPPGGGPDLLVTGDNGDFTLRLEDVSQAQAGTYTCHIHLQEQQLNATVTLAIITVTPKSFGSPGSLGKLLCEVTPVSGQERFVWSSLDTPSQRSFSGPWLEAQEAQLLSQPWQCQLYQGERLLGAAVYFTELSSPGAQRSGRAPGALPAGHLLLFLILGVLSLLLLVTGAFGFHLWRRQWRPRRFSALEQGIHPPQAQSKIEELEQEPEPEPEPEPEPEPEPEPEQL
Kind of test: cell ELISA on recombinant CHO cells expressing Lag3 (rel. EC50). As to the method:
After washing (1×90 μl in PBST) cells were fixed by addition of 30 μl/well glutaraldehyde to a final concentration of 0.05% (Sigma Cat.No: G5882), 10 min at room temperature. After washing (3×90 μl/well with PBST-buffer) 25 μl/well goat anti-Human Ig κ chain antibody-HRP conjugate (Milipore, AP502P) was added in a 1:1000 dilution and incubated at RT for 1 h. After washing (3×90 μl/well with PBST-buffer) 25 μl/well TMB substrate (Roche, 11835033001) was added and incubated for 6-10 min. Measurement took place on a Tecan Safire 2 instrument at 370/492 nm.

Test [4] deals with T4, full-length human PD1 on cells (human, UniProt Q15116 25-288).
T4 construct: also called CHO-PD1
T4 sequence (Q15116 25-288 limits assumed): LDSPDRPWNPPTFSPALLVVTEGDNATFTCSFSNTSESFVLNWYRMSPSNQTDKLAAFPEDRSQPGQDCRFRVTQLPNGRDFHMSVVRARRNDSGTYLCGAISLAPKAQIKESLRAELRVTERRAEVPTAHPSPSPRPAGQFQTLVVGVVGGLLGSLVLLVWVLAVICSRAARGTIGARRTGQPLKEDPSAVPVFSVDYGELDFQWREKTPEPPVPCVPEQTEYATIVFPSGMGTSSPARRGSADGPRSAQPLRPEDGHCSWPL
Kind of test: cell ELISA on CHO-K1 cells expressing full-length human PD1 (rel. EC50). The procedure:
(to avoid internalization). After washing carefully (1×90 μl/well PBST) cells were fixed by adding 30 μl/well 0.05% Glutaraldehyde (Sigma, Cat.No: G5882, 25%) diluted in 1×PBS-buffer and incubated for 10 min at RT. After washing (3×90 μl/well PBST) 25 μl/well secondary antibody was added for detection: goat-anti-human H+L-POD (JIR, JIR109-036-088)/Sheep-anti-mouse-POD (GE NA9310) followed by 1 h incubation at RT on shaker. After washing (3×90 μl/well PBST) 25 μl/well TMB substrate solution (Roche 11835033001) was added and incubated until OD 1.0-2.0. Plates were measured at 370/492 nm.

The target in another test is T5, biotinylated-Lag3 (UniProt P18627 23-450, limits assumed, biotinylated).
T5 construct: Probably a human LAG3 ECD construct; also called Lag3 (MHCII/ELISA)
T5 sequence (looked up): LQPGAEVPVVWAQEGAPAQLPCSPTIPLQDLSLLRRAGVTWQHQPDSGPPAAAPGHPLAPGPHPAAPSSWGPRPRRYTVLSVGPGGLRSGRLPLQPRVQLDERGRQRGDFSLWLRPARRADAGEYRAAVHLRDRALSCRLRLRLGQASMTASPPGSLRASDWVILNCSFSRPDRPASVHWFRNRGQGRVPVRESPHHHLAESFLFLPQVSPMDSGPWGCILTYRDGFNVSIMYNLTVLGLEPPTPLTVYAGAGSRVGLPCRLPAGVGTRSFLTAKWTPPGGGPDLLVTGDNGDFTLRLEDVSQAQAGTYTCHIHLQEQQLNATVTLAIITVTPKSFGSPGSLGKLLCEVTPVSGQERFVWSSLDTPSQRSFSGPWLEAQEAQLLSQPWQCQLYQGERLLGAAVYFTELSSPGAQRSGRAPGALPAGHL
Kind of test: ELISA, inhibition of biotinylated-Lag3 binding to MHC-II on A375 cells (competitor MHC-II). As to the method: 25 μl/well of A375 cells (10000 cells/well) were seeded into tissue culture treated 384-well plates (Corning, 3701) and incubated at 37° C. overnight. […] After washing (1×90 μl in PBST) cells were fixed by addition of 30 μl/well glutaraldehyde to a final concentration of 0.05% (Sigma Cat.No: G5882), 10 min at room temperature. After washing (3×90 μl/well with PBST-buffer) 25 μl/well Poly-HRP40-Streptavidin (Fitzgerald, 65R-S104PHRPx) was added in a 1:2000 or 1:8000 dilution and incubated at RT for 1 h. After washing (3×90 μl/well with PBST-buffer) 25 μl/well TMB substrate (Roche, 11835033001) was added and incubated for 2 to 10 min. Measurement took place on a Tecan Safire 2 instrument at 370/492 nm.

B1: PD1/LAG3 0222 (bispecific antibody, human IgG1, kappa, L234A L235A)
heavy 1: not shown
heavy 2: QVQLQQWGAGLLKPSETLSLTCAVYGGSFSDYYWNWIRQPPGKGLEWIGEINHNGNTNSNPSLKSRVTLSLDTSKNQFSLKLRSVTAADTAVYYCAFGYSDYEYNWFDPWGQGTLVTVSSASTKGPSVFPLAPSSKSTSGGTAALGCLVEDYFPEPVTVSWNSGALTSGVHTFPAVLQSSGLYSLSSVVTVPSSSLGTQTYICNVNHKPSNTKVDEKVEPKSCDKTHTCPPCPAPEAAGGPSVFLFPPKPKDTLMISRTPEVTCVVVDVSHEDPEVKFNWYVDGVEVHNAKTKPREEQYNSTYRVVSVLTVLHQDWLNGKEYKCKVSNKALGAPIEKTISKAKGQPREPQVCTLPPSRDELTKNQVSLSCAVKGFYPSDIAVEWESNGQPENNYKTTPPVLDSDGSFFLVSKLTVDKSRWQQGNVFSCSVMHEALHNHYTQKSLSLSPGK
light 1: QVQLQQSGPELVRPGVSVKISCKGSGYTFTDYAMHWVKQSHARTLEWIGVISTYSGDTNYNQKFKDKATMTVDKSSSTAYLELARMTSEDSAIYYCARLGITTGFAYWGQGTLVTVSAASVAAPSVFIFPPSDEQLKSGTASVVCLLNNFYPREAKVQWKVDNALQSGNSQESVTEQDSKDSTYSLSSTLTLSKADYEKHKVYACEVTHQGLSSPVTKSFNRGEC
light 2: not shown
notes: 1+1 CrossMAb Vh-VL; also called PD1(0069)/aLAG3(25F7) 1+1; PD1-0069/LAG3 25F7 (1 + 1)
The EC50 is the midpoint of the concentration-response curve. Broadly, the IC50 is the concentration needed to halve the response being measured. Low readings indicate inhibition by little substance, high ones a need for much substance. In the case of B1, the EC50 came to 1.14 nM in test [1], 0.16 nM in test [2], 0.72 nM in test [3] and 0.28 nM in test [4]. Besides, the IC50 with biotinylated-Lag3 turned out to be 0.77 nM.

B2: PD1/LAG3 0224 (bispecific antibody, human IgG1, kappa, L234A L235A)
heavy 1: not shown
heavy 2: QVQLQQWGAGLLKPSETLSLTCAVYGGSFSDYYWNWIRQPPGKGLEWIGEINHNGNTNSNPSLKSRVTLSLDTSKNQFSLKLRSVTAADTAVYYCAFGYSDYEYNWFDPWGQGTLVTVSSASTKGPSVFPLAPSSKSTSGGTAALGCLVEDYFPEPVTVSWNSGALTSGVHTFPAVLQSSGLYSLSSVVTVPSSSLGTQTYICNVNHKPSNTKVDEKVEPKSCDKTHTCPPCPAPEAAGGPSVFLFPPKPKDTLMISRTPEVTCVVVDVSHEDPEVKFNWYVDGVEVHNAKTKPREEQYNSTYRVVSVLTVLHQDWLNGKEYKCKVSNKALGAPIEKTISKAKGQPREPQVCTLPPSRDELTKNQVSLSCAVKGFYPSDIAVEWESNGQPENNYKTTPPVLDSDGSFFLVSKLTVDKSRWQQGNVFSCSVMHEALHNHYTQKSLSLSPGK
light 1: DVQLQESGPGLVKPSQSLSLTCTVTGYSITSDYAWNWIRQFPGDKLEWLGYITYSGFTNYNPSLKSRISISRDTSKNQFFLQLNSVATEDTATYYCARWHGSAPWYFDYWGRGTTLTVSSASVAAPSVFIFPPSDEQLKSGTASVVCLLNNFYPREAKVQWKVDNALQSGNSQESVTEQDSKDSTYSLSSTLTLSKADYEKHKVYACEVTHQGLSSPVTKSFNRGEC
light 2: not shown
notes: 1+1 CrossMAb Vh-VL; also called PD1(0098)/aLAG3(25F7) 1+1; PD1-0098/LAG3 25F7 (1 + 1)
As for B2, the EC50 in test [1] amounted to 0.86 nM; in test [2], 0.04 nM; in test [3], 0.86 nM; in test [4] it was 0.06 nM. Besides, the IC50 with biotinylated-Lag3 turned out to be 0.79 nM.

B3: PD1/LAG3 9010 (bispecific antibody, human IgG1, kappa, L234A L235A)
heavy: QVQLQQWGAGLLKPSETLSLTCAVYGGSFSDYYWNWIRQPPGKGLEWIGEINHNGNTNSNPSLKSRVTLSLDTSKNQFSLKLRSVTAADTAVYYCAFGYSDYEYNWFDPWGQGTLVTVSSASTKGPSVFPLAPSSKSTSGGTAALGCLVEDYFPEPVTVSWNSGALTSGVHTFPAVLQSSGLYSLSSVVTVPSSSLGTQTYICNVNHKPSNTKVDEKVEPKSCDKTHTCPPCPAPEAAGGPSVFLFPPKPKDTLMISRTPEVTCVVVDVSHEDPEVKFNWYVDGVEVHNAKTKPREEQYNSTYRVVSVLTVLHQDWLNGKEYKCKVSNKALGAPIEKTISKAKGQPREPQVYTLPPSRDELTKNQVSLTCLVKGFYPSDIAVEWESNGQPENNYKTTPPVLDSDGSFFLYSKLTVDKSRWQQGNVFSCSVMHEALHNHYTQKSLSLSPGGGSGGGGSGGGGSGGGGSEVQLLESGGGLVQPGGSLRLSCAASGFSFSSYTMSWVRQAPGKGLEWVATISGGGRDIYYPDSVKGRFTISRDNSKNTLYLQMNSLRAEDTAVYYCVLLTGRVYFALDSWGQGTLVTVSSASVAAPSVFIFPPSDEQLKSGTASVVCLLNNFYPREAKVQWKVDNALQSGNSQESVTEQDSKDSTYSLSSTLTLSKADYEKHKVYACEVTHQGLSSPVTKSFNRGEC
light 1: DIVMTQSPDSLAVSLGERATINCKASESVDTSDNSFIHWYQQKPGQSPKLLIYRSSTLESGVPDRFSGSGSGTDFTLTISSLQAEDVAVYYCQQNYDVPWTFGQGTKVEIKSSASTKGPSVFPLAPSSKSTSGGTAALGCLVKDYFPEPVTVSWNSGALTSGVHTFPAVLQSSGLYSLSSVVTVPSSSLGTQTYICNVNHKPSNTKVDKKVEPKSC
light 2: not shown
notes: 2+2 format
Regarding B3, the EC50 in test [1] is 0.05 nM; in test [2] it was 0.04 nM; in test [3] it was 0.48 nM; in test [4], 0.36 nM. In addition, the 50% inhibitory concentration (IC50) with biotinylated-Lag3 turned out to be 0.52 nM.
